Test results as given in paper PMC7690628 (Pharmaceuticals, 2020).

What was measured:
CYP3A4 = CYP3A4 (Homo sapiens, UniProt P08684); assay: biochemical
purified protein = substrate: O=C(CCc1ccc(O)cc1)c1c(O)cc(O)cc1O; assay: purified protein; conditions: heme

CYP3A4, sequence (P08684 2-503): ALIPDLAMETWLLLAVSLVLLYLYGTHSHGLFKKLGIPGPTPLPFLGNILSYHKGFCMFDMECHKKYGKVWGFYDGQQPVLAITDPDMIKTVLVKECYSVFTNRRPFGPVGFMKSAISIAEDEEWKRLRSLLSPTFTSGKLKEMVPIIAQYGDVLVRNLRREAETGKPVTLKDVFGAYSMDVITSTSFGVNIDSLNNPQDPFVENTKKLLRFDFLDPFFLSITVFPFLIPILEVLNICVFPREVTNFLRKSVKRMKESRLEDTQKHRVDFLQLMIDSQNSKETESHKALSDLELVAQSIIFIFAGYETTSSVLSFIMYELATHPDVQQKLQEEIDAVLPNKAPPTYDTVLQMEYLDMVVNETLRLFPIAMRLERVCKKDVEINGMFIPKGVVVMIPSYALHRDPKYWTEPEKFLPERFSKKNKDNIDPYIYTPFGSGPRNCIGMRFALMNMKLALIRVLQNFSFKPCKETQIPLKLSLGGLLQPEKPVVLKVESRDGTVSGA
CYP3A4, sequence (P00388 2-678 partner): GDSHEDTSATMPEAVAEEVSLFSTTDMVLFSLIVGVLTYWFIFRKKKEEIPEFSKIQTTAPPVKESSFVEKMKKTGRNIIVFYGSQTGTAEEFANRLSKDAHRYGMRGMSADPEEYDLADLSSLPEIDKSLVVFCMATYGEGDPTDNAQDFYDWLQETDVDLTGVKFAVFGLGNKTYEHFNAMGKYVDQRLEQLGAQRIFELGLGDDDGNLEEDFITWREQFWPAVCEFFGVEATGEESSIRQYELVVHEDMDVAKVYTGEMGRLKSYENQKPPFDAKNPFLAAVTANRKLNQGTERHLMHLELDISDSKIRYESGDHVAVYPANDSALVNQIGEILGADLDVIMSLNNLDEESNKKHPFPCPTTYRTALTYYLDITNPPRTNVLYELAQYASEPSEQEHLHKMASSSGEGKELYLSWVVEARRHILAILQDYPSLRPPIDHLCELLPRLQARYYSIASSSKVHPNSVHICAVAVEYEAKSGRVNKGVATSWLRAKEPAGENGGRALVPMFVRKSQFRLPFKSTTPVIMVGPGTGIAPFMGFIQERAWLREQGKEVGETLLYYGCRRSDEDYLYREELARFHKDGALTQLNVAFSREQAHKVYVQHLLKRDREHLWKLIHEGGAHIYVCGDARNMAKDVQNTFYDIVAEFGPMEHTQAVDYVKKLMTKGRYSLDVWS

Row | IC50 (CYP3A4) | Molecule | Km (purified protein) | kcat (purified protein) | kcat/Km (purified protein)
1 | 13 µM | O=C(CCc1ccc(O)cc1)c1c(O)cc(O)cc1O [phloretin, 3-(4-hydroxyphenyl)-1-(2,4,6-trihydroxyphenyl)propan-1-one] |  |  | 
2 |  | CYP2C19 (Homo sapiens) (protein) MDPFVVLVLCLSCLLLLSIWRQSSGRGKLPPGPTPLPVIGNILQIDIKDVSKSLTNLSKIYGPVFTLYFGLERMVVLHGYEVVKEALIDLGEEFSGRGHFPLAERANRGFGIVFSNGKRWKEIRRFSLMTLRNFGMGKRSIEDRVQEEARCLVEELRKTKASPCDPTFILGCAPCNVICSIIFQKRFDYKDQQFLNLMEKLNENIRIVSTPWIQICNNFPTIIDYFPGTHNKLLKNLAFMESDILEKVKEHQESMDINNPRDFIDCFLIKMEKEKQNQQSEFTIENLVITAADLLGAGTETTSTTLRYALLLLLKHPEVTAKVQEEIERVIGRNRSPCMQDRGHMPYTDAVVHEVQRYIDLIPTSLPHAVTCDVKFRNYLIPKGTTILTSLTSVLHDNKEFPNPEMFDPRHFLDEGGNFKKSNYFMPFSAGKRICVGEGLARMELFLFLTFILQNFNLKSLIDPKDLDTTPVVNGFASVPPFYQLCFIPV | 208 ± 50 µM | 0.0967 s⁻¹ | 467 M⁻¹ s⁻¹
